Test results from patent US20250027114.

Key:
[1] = test system: T1, E3-18-ABE8e (Neisseria meningitidis); experiment: cell_activity; settings: PAM N4YNC average, E. coli ABE-PPA; 33% on N4YND
T1 sequence: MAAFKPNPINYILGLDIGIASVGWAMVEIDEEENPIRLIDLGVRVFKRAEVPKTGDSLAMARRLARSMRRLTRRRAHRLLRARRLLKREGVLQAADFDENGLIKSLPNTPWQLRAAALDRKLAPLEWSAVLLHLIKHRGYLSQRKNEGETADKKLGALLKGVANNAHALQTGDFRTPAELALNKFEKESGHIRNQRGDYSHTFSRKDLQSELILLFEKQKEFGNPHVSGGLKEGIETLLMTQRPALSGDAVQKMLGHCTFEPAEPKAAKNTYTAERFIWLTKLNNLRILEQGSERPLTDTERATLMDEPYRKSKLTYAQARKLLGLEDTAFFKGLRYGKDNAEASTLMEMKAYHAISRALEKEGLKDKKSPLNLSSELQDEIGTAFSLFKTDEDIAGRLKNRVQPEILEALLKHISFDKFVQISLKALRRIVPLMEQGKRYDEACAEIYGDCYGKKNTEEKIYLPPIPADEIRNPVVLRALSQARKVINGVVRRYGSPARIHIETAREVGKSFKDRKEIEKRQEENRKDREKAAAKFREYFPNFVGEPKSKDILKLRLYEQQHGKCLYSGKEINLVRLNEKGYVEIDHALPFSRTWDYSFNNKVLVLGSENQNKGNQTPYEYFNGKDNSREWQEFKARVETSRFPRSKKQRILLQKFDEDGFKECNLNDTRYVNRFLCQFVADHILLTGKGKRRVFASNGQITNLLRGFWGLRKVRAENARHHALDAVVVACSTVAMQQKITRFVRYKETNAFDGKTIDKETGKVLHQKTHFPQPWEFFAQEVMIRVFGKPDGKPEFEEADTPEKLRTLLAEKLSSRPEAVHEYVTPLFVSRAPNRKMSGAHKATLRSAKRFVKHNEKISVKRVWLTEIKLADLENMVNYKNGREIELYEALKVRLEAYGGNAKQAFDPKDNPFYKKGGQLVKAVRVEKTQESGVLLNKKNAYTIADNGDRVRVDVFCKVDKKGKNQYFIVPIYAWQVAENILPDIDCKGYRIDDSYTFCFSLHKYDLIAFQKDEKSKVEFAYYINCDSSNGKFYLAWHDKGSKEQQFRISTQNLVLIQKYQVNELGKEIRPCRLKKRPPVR

[2] = test system: T2, eNme2-C-dABE8e (Neisseria meningitidis); experiment: cell_activity; settings: all N4CN PAMs, E. coli ABE-PPA
T2 sequence: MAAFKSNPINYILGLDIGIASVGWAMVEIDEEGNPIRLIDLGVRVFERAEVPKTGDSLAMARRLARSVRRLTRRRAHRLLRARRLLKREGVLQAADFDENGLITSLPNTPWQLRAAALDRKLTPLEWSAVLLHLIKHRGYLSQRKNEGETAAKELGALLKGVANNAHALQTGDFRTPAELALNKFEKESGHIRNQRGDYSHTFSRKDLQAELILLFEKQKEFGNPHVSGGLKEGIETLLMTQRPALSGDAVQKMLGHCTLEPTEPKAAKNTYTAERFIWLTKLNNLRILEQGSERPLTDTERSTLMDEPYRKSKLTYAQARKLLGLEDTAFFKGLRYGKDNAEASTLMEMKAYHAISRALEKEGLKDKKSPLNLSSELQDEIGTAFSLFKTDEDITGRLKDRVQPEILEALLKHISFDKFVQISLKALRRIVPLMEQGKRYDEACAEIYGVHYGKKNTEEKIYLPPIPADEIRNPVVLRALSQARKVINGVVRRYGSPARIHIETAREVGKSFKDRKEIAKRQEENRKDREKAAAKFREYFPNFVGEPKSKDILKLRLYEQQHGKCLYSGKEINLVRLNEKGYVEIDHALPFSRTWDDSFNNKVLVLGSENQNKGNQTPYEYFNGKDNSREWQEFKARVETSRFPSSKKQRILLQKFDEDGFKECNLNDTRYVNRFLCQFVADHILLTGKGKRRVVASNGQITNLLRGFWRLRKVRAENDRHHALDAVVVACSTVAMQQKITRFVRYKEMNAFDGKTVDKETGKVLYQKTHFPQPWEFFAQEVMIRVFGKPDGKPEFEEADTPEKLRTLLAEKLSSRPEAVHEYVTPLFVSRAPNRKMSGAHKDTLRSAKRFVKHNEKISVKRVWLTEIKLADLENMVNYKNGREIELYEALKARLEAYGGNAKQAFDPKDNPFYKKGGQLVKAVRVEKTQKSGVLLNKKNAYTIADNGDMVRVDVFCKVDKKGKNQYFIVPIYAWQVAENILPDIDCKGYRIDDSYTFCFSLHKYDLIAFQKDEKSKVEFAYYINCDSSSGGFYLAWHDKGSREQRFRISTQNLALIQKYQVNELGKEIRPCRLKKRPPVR

AUGGCCCAGACUGAGCACGUGAGGUUGUAGCUCCCUUUCUCAUUUCGGAAACGAAAUGAGAACCGUUGCUACAAUAAGGCCGUCUGAAAAGAUGUGCCGCAACGCUCUGCCCCUUAAAGCUUCUGCUUUAAGGGGCAUCGUUUA / ATGGCCCAGACTGAGCACGTGA / TCACGTGCTCAGTCTGGGCCAT [ABE-PPA sgRNA ; ABE-PPA protospacer library target]
activity (% A-to-G conversion) [1]: 61 | activity (% A-to-G conversion) [2]: > 80
